Molecular target: human dynein heavy chain with an N-terminal GFP, within the GFP-dynein complex (human) (UniProt Q14204)
Assay: single-molecule photobleaching step counting

## human dynein heavy chain with an N-terminal GFP, within the GFP-dynein complex, Q14204 1-4646
  stoichiometry N: 2

Reference: publication PMC5007201
